For series [1], the target named is nucleolin (UniProt P19338). The series can be described thus: SPR. The settings on record: SPR: 1x PBS, nucleolin on CM5 chip, analyte 0.156-10 uM, regeneration 50 mM NaOH, temperature not stated, ELONA: 1x PBS, 1 mM MgCl2, 0.05% Tween 20, 1 uM ….
Series [2] addresses nucleolin (UniProt P19338). The series can be described thus: ELONA. The settings on record: 1 mM Mg2+; U6 = 5-fluorouridine (5FU replaces T6; printed F); ELONA: 1x PBS, 1 mM MgCl2, 0.05% Tween 20, 1 uM biotin.

Sequence of nucleolin (P19338 2-710): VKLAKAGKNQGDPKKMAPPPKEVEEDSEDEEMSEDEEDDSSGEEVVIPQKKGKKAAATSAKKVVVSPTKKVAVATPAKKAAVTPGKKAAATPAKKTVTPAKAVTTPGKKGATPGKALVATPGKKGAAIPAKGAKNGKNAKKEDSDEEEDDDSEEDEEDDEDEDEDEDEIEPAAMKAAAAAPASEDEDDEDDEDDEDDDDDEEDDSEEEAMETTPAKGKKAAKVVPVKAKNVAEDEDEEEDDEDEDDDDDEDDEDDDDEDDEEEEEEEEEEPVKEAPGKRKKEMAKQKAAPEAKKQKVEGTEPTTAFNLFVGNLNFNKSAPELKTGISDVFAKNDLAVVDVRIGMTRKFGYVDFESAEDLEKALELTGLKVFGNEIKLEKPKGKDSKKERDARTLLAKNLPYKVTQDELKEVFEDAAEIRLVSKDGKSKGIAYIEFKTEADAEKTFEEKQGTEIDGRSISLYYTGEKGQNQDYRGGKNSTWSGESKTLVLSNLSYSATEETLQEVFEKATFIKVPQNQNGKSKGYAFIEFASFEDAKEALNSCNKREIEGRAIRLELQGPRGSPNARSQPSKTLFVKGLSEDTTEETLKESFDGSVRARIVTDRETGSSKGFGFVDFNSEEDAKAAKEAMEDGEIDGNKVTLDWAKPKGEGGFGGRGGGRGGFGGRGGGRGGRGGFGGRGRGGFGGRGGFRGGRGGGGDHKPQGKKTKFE

In general, Kd refers to the constant that tells how readily two partners part at equilibrium. A high value points to a looser complex. With GGTGGTGGTGGTTGTGGTGGTGGTGG [AS1411], the Kd with nucleolin [1] was 69.1 nM.

Sequence “GGTGGTGGTGGTTGTGGTGGTGGTGG [ASP (AS1411-paclitaxel, thioether linker)]” returned an equilibrium dissociation constant (Kd) in the series with nucleolin [1] (3'-amino DNA conjugated to paclitaxel through thioether linker) of 253 nM.

“GGTGGUGGTGGTTGTGGTGGTGGTGG [FA (sequence 2, 5FU at site 6 of AS1411)]”: in the series with nucleolin [1] (U6 = 5-fluorouridine (5FU replaces T6; printed F)), the Kd came to 24.8 nM.

In the case of “GGTGGUGGTGGTTGTGGTGGTGGTGG [FA, biotinylated (sequence 2)]”, the binding signal with nucleolin [2] is > 100 % of AS1411.

The sequence “GGTGGUGGTGGTTGTGGTGGTGGTGG [FASP (FA-paclitaxel, thioether linker)]” displayed a dissociation constant Kd in the series with nucleolin [1] (U6 = 5-fluorouridine (5FU replaces T6), 3'-amino DNA conjugated to paclitaxel through thioether linker) of 61.7 nM.

For the origin of these results see PMC11218354.
